Laboratory results published in paper PMC7264160.

Biological target: Nascent polypeptide-associated complex (NAC) protein of Picrophilus torridus (Picrophilus torridus)
Assay: SEC; HiPrep S-200 HR column; elution compared with protein standards run on this column

- stoichiometry N: 2
Substance: Nascent polypeptide-associated complex (NAC) protein of Picrophilus torridus (natural protein)
